Laboratory results: PMC11476177

T1: His-TonEBP sNT (UniProt O94916 1-548)
T1 sequence: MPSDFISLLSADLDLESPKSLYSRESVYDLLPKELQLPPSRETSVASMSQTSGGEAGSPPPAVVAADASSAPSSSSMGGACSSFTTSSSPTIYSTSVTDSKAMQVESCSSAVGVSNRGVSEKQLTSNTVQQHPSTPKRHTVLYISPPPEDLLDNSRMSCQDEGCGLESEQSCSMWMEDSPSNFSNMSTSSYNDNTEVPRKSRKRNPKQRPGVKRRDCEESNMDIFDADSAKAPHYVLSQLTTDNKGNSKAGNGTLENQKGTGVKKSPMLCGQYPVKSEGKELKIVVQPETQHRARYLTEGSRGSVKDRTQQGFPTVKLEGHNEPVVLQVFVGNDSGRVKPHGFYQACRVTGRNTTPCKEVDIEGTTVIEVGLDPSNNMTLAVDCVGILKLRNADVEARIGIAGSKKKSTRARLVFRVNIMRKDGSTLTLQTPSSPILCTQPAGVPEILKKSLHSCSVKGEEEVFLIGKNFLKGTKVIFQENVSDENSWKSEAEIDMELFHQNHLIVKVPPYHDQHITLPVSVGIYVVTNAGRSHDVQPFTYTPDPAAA

B1: Probe p65 (dsDNA)
DNA 1: AATGTAAGTGGGAAATTCCTCTGAATA
DNA 2: TATTCAGAGGAATTTCCCACTTACATT
B2: Probe IRF3/p65 (dsDNA)
DNA 1: ATAGGAAAACTGAAAGGGAGAAGTGAAAGTGGGAAATTCC
DNA 2: GGAATTTCCCACTTTCACTTCTCCCTTTCAGTTTTCCTAT

Tests used:
His-p65 = His-p65 (UniProt Q04206); assay: SPR; conditions: SPR: 10 mM HEPES, 150 mM NaCl, 3 mM EDTA, 0.05% P20, pH not stated, room temp, EMSA: 10 mM Tris-HCl pH 7.5, 10 mM NaCl, 40 mM KCl, 1 mM MgCl2, 1 mM EDTA
Sequence of His-p65 (Q04206 whole entry): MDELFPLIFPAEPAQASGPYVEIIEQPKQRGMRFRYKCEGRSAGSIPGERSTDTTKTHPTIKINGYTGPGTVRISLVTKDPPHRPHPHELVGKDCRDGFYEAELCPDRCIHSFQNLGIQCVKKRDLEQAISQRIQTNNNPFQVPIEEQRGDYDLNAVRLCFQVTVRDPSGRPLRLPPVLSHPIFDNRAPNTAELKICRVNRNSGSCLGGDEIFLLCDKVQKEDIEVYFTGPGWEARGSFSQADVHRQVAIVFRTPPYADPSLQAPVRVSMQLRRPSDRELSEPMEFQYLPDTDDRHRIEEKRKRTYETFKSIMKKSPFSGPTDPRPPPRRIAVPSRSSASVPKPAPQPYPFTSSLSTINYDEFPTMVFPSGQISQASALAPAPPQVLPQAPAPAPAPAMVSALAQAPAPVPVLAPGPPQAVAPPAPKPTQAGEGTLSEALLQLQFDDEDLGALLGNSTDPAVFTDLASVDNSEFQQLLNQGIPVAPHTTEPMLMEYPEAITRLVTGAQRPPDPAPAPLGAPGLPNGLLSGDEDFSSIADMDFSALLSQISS

His-TonEBP sNT = target: T1, His-TonEBP sNT; assay: SPR; SPR: 10 mM HEPES, 150 mM NaCl, 3 mM EDTA, 0.05% P20, pH not stated, room temp; EMSA: 10 mM Tris-HCl pH 7.5, 10 mM NaCl, 40 mM KCl, 1 mM MgCl2, 1 mM EDTA, 1 mM DTT, 50 ug/mL BSA, 100 nM probe, 25 min room temp, 0.8% agarose; conditions: protein: recombinant; tags: N-terminal His; chain copies: 2; label: biotin (SPR), 5' end of strand 1 as printed; text says dsDNA, only one strand given

Molecule | Kd (His-p65) | Kd (His-TonEBP sNT)
AATGTAAGTGGGAAATTCCTCTGAATA (double strand) [Probe p65] | 35.2 nM | 
ATAGGAAAACTGAAAGGGAGAAGTGAAAGTGGGAAATTCC (double strand) [Probe IRF3/p65] | 11.5 nM | 
B1 |  | 84.7 nM
B2 |  | 31.3 nM
